One block for each binder: values may come before it.
Legend:
[1] = biological target: T1, CD3 (reagent of the affinity experiments of Example 18) (UniProt P07766 23-126); test: BLI; aCD3 IgG analyte, apparent KD (bivalent), avid
T1 chain: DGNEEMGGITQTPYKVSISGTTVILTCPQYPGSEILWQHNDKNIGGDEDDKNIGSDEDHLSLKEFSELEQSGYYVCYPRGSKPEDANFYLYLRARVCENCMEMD

[2] = biological target: T1, CD3 (reagent of the affinity …); test: BLI; aCD3 IgG analyte
[3] = biological target: T1, CD3 (reagent of the affinity …); test: BLI; aCD3 IgG load
[4] = biological target: T2, HLA-PEPTIDE target G2: HLA-A*01:01_…, recombinant soluble complex (human, enzymatically biotinylated (BirA)); test: BLI; apparent KD (bivalent), avid
[5] = biological target: T1, CD3 (reagent of the affinity …); test: BLI
[6] = biological target: T2, HLA-PEPTIDE target G2: HLA-A*01:01_…, …; test: BLI

Kd [1]: < 0.001 nM
Kd [2]: 144 nM
Kd [3]: 2.92 nM
B1: antibody designated αCD3, in IgG format (antibody, V domains shown)
VH: EVQLVESGGGLVQPGGSLRLSCAASGFTFSTYAMNWVRQAPGKGLEWVGRIRSKYNNYATYYADSVKGRFTISRDDSKNTLYLQMNSLRAEDTAVYYCVRHGNFGDSYVSWFAYWGQGTLVTVSS
VL: QAVVTQEPSLTVSPGGTVTLTCGSSTGAVTTSNYANWVQQKPGKSPRGLIGGTNKRAPGVPARFSGSLLGGKAALTISGAQPEDEADYYCALWYSNHWVFGGGTKLTVLR

Kd [4]: 2.72 nM
Kd [5]: 26.1 nM
Kd [6]: 5.34 nM
B2: 4-G2(1H11)-hOKT3 (bispecific antibody)
chain: not shown
heavy: QVQLVQSGAEVKKPGASVKVSCKASGYTFTNYYMHWVRQAPGQGLEWMGMINPSGGGTSYAQKFQGRVTMTRDTSTSTVYMELSSLRSEDTAVYYCARGNPWELRLDYWGQGTLVTVSSGGGGSGGGGSGGGGSGGGGSDIQMTQSPSSLSASVGDRVTITCQASQDISNYLNWYQQKPGKAPKLLIYAASSLQSGVPSRFSGSGSGTDFTLTISSLQPEDFATYYCQQYYSYPFTFGPGTKVDIKGGGGSGGGGSQVQLVQSGAEVKKPGASVKVSCKASGYTFTRYTMHWVRQAPGQGLEWMGYINPSRGYTNYNQKFKDRVTLTTDKSSSTAYMELSSLRSEDTAVYYCARYYDDHYSLDYWGQGTLVTVSSASTKGPSVFPLAPSSKSTSGGTAALGCLVKDYFPEPVTVSWNSGALTSGVHTFPAVLQSSGLYSLSSVVTVPSSSLGTQTYICNVNHKPSNTKVDKRVEPKSCDKTHTCPPCPAPELLGGPSVFLFPPKPKDTLMISRTPEVTCVVVDVSHEDPEVKFNWYVDGVEVHNAKTKPREEQYQSTYRVVSVLTVLHQDWLNGKEYKCKVSNKALPAPIEKTISKAKGQPREPQVCTLPPSREEMTKNQVSLSCAVKGFYPSDIAVEWESNGQPENNYKTTPPVLDSDGSFFLVSKLTVDKSRWQQGNVFSCSVMHEALHNRFTQKSLSLSPGK
light: DIQMTQSPSSLSASVGDRVTITCSASSSVSYMNWYQQKPGKAPKRLIYDTSKLASGVPSRFSGSGSGTDFTLTISSLQPEDFATYYCQQWSSNPFTFGQGTKLEIKRTVAAPSVFIFPPSDEQLKSGTASVVCLLNNFYPREAKVQWKVDNALQSGNSQESVTEQDSKDSTYSLSSTLTLSKADYEKHKVYACEVTHQGLSSPVTKSFNRGEC
